Reference: paper PMC11602657, “Nap1 and Kap114 co-chaperone H2A-H2B and facilitate targeted histone release in the nucleus” (The Journal of Cell Biology, 2024)
Changes are numbered by the printed parent chain. Names may count otherwise. “And” between values parts separate entries of the source, which are not always exact repeats. Equal entries are not always repeated.

What was measured:
Kap114 = molecular target: T1, Kap114 (S. cerevisiae, UniProt P53067 1-1004); assay: SEC-MALS; proteins alone or binary mixtures at the indicated molar ratios to 80 µM Kap114; Assay buffer without glycerol; Nap1 counted as dimer; settings: both partners purified
T1 construct: also called Sc Kap114; source: E. coli, expressed as GST-Kap114, purified (Glutathione Sepharose 4B, on-column TEV cleavage, SEC)
T1 sequence: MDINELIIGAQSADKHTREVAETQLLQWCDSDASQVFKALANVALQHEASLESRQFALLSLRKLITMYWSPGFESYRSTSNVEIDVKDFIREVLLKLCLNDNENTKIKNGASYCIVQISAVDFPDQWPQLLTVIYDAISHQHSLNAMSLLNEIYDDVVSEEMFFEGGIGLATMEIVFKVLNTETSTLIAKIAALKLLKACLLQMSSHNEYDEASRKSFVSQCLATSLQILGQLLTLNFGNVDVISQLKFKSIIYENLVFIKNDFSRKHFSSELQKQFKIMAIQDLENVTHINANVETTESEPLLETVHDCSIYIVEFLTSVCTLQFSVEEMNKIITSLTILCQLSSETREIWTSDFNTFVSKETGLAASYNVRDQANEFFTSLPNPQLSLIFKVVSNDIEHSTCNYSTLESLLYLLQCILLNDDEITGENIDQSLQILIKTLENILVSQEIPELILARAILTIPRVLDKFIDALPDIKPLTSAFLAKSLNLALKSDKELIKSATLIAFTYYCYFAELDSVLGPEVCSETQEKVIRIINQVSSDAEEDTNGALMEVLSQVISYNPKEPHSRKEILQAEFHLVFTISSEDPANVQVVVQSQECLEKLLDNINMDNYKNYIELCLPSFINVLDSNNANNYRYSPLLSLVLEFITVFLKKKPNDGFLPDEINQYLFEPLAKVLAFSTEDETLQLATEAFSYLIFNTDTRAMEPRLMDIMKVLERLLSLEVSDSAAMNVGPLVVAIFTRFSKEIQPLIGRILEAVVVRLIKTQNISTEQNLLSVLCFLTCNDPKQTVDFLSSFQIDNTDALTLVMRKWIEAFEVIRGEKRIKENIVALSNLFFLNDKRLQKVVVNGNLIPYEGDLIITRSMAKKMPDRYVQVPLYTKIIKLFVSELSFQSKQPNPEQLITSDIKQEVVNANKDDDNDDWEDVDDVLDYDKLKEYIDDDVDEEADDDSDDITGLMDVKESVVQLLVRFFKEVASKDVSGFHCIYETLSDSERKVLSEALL

[1] = molecular target: the molecule itself; assay: as above
[2] = molecular target: T2, MBP-Kap114 YDAA (Y939A/D942A) (S. cerevisiae, UniProt P53067 1-1004, Y939A | D942A); assay: pull-down; MBP-Kap114 (WT or mutant; or MBP alone) 1 µM immobilized on amylose resin, equimolar Nap1_(2) ± H2A-H2B (1 or 2 µM) ± Ran^GTP; Assay Buffer (20 mM HEPES pH 7.4, 150 mM NaCl, 2 mM MgCl2, 10% glycerol, 2 mM DTT), 30 min at 4°C; Coomassie-stained SDS-PAGE; settings: both partners purified
T2 construct: Kap114, S. cerevisiae, h19loop mutant; source: E. coli BL21 Gold, purified; not shown: MBP, N-terminal, kept
T2 sequence (looked up): T1 sequence with Y939A, D942A

[3] = molecular target: T3, MBP-Kap114 DDAA (D928A/D929A) (S. cerevisiae, UniProt P53067 1-1004, D928A | D929A); assay: as above; settings: both partners purified
T3 construct: Kap114, S. cerevisiae, h19loop mutant; source: E. coli BL21 Gold, purified; not shown: MBP, N-terminal, kept
T3 sequence (looked up): T1 sequence with D928A, D929A

stoichiometry N (Kap114): 1 | binding result [2]: binds | binding result [3]: binds
B1: Nap1 FL (C200A, C249A, C272A) (natural protein, S. cerevisiae, UniProt P25293 1-417, looked up)
chain: MSDPIRTKPKSSMQIDNAPTPHNTPASVLNPSYLKNGNPVRAQAQEQDDKIGTINEEDILANQPLLLQSIQDRLGSLVGQDSGYVGGLPKNVKEKLLSLKTLQSELFEVEKEFQVEMFELENKFLQKYKPIWEQRSRIISGQEQPKPEQIAKGQEIVESLNETELLVDEEEKAQNDSEEEQVKGIPSFWLTALENLPIVADTITDRDAEVLEYLQDIGLEYLTDGRPGFKLLFRFDSSANPFFTNDILAKTYFYQKELGYSGDFIYDHAEGAEISWKDNAHNVTVDLEMRKQRNKTTKQVRTIEKITPIESFFNFFDPPKIQNEDQDEELEEDLEERLALDYSIGEQLKDKLIPRAVDWFTGAALEFEFEEDEEEADEDEDEEEDDDHGLEDDDGESAEEQDDFAGRPEQAPECKQS
notes: Nap1 (nucleosome assembly protein 1), S. cerevisiae, full length (FL), with C200A, C249A, C272A for specific labeling on 414C; pHAT4 vector, gift from Sheena D'Arcy; Counted as a dimer (Nap1_(2)) in all molar ratios; alone a mixture of dimers and tetramers; also called Nap1_(2); Nap1_(2) FL; source: E. coli BL21 gold, purified (Ni-NTA, TEV cleavage, HiTrap Q, Superdex S200)
stoichiometry N [1]: 2 and 4
